Laboratory results: patent US20130230533A1 (Regeneron, published 2013)
Numbering of substitutions follows the chain as printed. Names may count otherwise. Values belong to the binder of their own block, whether it stands above or below them.

Legend:
[1] = target: T1, human CD48 (on primary human peripheral blood mononuclear cells) (human, UniProt P09326 27-220); assay: cell-based or functional assay
T1 sequence: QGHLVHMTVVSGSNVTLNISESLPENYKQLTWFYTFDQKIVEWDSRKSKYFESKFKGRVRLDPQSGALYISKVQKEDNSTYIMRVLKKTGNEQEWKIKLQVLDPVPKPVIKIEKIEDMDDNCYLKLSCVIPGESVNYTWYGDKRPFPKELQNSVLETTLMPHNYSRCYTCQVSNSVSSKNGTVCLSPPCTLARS

[2] = target: T1, human CD48 (on primary human peripheral …); assay: cell-based or functional assay; remark: listed apart in the source
[3] = target: T1, human CD48 (on primary human peripheral …); assay: cell-based or functional assay; remark: listed apart in the source
[4] = target: T1, human CD48 (on primary human peripheral …); assay: cell-based or functional assay; remark: listed apart in the source
[5] = target: T2, monomeric monkey CD48 expressed with a tag consisting of 2 myc and one 6-His epitopes (monkey); assay: competition ELISA; blocks mfCD48-mmH binding to coated h2B4-mFc
T2 construct: also called mfCD48-mmH; Monomeric monkey CD48-mmH
T2 chain: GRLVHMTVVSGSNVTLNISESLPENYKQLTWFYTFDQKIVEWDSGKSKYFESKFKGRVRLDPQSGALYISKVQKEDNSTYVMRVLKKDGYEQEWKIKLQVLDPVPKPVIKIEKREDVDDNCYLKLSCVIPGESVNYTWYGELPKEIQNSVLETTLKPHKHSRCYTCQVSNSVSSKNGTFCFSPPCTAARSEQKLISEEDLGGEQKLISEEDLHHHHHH
Procedure: (§1) The ability of human anti-CD48 monoclonal antibodies to block human CD48 and monkey CD48 binding to the human cognate ligand, human 2B4, was measured using a competition sandwich ELISA (Table 8). Constant amounts of biotinylated dimeric human CD48 protein expressed as a fusion with mouse IgG2a Fc (“bio-hCD48-mFc” [SEQ ID NO: 387]) or monomeric monkey CD48 expressed with a tag consisting of 2 myc and one 6-His epitopes (“mfCD48-mmH” [SEQ ID NO: 386]) were separately titrated with varying amounts of antibodies. These antibody-protein complexes were incubated (1 hr, 25° C.) before being transferred to microtiter plates coated with a dimeric construct expressing the human 2B4 receptor fused to a either human IgG1 (h2B4-hFc [R&D Systems, Inc., Minneapolis, Minn., Cat. No. 1039-2B]) or mouse IgG2a Fc (h2B4-mFc [SEQ ID NO: 389). After a 1 hr at 25° C. the wells were washed and bound human CD48 was detected with streptavidin conjugated with horse-radish peroxidase (HRP), and monkey CD48 was detected with an HRP conjugated anti-myc polyclonal antibody. The ELISA was developed with a TMB solution to produce a colorimetric reaction and quenched with sulfuric acid before reading absorbance at 450 nm on a Victor X5 plate reader. Sigmoidal dose response curves were fit to the data using Prism™ software. […] (Tables 8 and 9, NB=no binding observed)

[6] = target: T3, biotinylated dimeric human CD48 protein expressed as a fusion with mouse IgG2a Fc (human, biotinylated); assay: competition ELISA; blocks bio-hCD48-mFc binding to coated h2B4-mFc
T3 construct: also called bio-hCD48-mFc; Dimeric human CD48-mFc
T3 chain: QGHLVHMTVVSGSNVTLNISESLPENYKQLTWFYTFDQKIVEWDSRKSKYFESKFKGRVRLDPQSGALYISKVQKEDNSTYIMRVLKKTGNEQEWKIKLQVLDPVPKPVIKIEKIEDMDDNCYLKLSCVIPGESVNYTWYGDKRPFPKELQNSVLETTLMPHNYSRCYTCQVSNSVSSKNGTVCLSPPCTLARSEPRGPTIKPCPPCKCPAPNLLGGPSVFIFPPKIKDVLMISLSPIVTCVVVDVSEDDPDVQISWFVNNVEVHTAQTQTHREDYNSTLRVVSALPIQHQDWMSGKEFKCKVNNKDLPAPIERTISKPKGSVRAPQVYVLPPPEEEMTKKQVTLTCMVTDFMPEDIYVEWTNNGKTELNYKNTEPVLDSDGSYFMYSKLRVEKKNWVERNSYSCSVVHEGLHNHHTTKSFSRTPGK
Procedure: as §1

[7] = target: T1, human CD48 (on primary human peripheral …); assay: cell-based or functional assay; remark: listed apart in the source
[8] = target: T2, monomeric monkey CD48 expressed with a …; assay: competition ELISA; blocks mfCD48-mmH binding to coated h2B4-hFc
Procedure: as §1

[9] = target: T3, biotinylated dimeric human CD48 protein …; assay: competition ELISA; blocks bio-hCD48-mFc binding to coated h2B4-hFc
Procedure: as §1

Inhibition of IFN-gamma Release IC50; Donor 6 [1]: 1.2e-11 Molar
Inhibition of IFN-gamma Release IC50; Donor 7 [1]: 1.8e-11 Molar
Inhibition of IFN-gamma Release IC50; Donor 8 [2]: 3.7e-11 Molar
Inhibition of IFN-gamma Release IC50; Donor 9 [2]: 1.6e-11 Molar
Inhibition of IFN-gamma Release IC50; Donor 10 [2]: 1.3e-11 Molar
Inhibition of IFN-gamma Release IC50; Donor 11 [2]: 1.3e-11 Molar
% Blockade of IFNγ release, MLR; D1 [3]: 65%
% Blockade of IFNγ release, MLR; D2 [3]: 66%
% Blockade of IFNγ release, MLR; D3 [3]: 88%
% Blockade of IFNγ release, MLR; D4 [3]: 36%
% Blockade of IFNγ release, MLR; D5 [3]: 89%
% Blockade of IFNγ release, MLR; D6 [3]: 82%
% Blockade of IFNγ release, MLR; D7 [3]: 75%
% Blockade of IFNγ release, MLR; D8 [3]: 65%
% Blockade of IFNγ release, MLR; D9 [3]: 66%
IC50 of IFNγ release, MLR; D1 [4]: ~0.0014 nM
IC50 of IFNγ release, MLR; D2 [4]: ~0.0093 nM
IC50 of IFNγ release, MLR; D4 [4]: 0.23 nM
IC50 of IFNγ release, MLR; D5 [4]: ~0.09 nM
IC50 of IFNγ release, MLR; D6 [4]: 0.0028 nM
IC50 of IFNγ release, MLR; D8 [4]: 0.029 nM
IC50 of IFNγ release, MLR; D9 [4]: 0.18 nM
IC50 of IFNγ release, MLR; D10 [4]: ~0.05 nM
IC50 of IFNγ release, MLR; D11 [4]: ~0.092 nM
IC50 of IFNγ release, MLR; D12 [4]: ~0.3 nM
IC50 of IFNγ release, MLR; D13 [4]: ~0.096 nM
IC50 of IFNγ release, MLR; D14 [4]: 0.2 nM
IC50 of IFNγ release, MLR; D15 [4]: ~0.0027 nM
IC50 of IFNγ release, MLR; D16 [4]: ~0.012 nM
IC50 [5]: 0.038 nM
IC50 [6]: 0.053 nM
B1: H4H1789Pa (antibody, V domains shown)
VH: EVQLLESGGGLVHPGGSLRLSCAASGFTFGGYAMSWVRQAPGKGLEWVSLISGSGGSTYYADSVKGRFTIFRDNSKNTLYLQMISLRAEDSAVYYCAKYSNYDYFDPWGQGTLVTVSS
VL: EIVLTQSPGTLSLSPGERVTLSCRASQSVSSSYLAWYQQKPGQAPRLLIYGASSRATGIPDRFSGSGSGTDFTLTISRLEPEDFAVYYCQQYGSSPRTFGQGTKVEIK
notes: Human IgG4 Fc (H4H)

Inhibition of IFN-gamma Release IC50; Donor 1 [7]: 4.9e-11 Molar
Inhibition of IFN-gamma Release IC50; Donor 2 [7]: 3e-11 Molar
Inhibition of IFN-gamma Release IC50; Donor 3 [7]: 1.1e-10 Molar
Inhibition of IFN-gamma Release IC50; Donor 4 [7]: 1.7e-10 Molar
Inhibition of IFN-gamma Release IC50; Donor 5 [7]: 1.5e-11 Molar
Inhibition of IFN-gamma Release IC50; Donor 6 [1]: 9.3e-12 Molar
Inhibition of IFN-gamma Release IC50; Donor 7 [1]: 1.9e-11 Molar
IC50 [8]: 0.023 nM
IC50 [5]: 0.0049 nM
IC50 [9]: 0.022 nM
IC50 [6]: 0.0086 nM
B2: H2M1707N (antibody, V domains shown)
VH: EGQLLESGGGLAQPGGSLRLSCAASGITFGRYAMSWVRQAPGKGLEWVSLISGSGGSTYHADSVKGRFTISRDNSKNTLYLQMNSLRAEDTAVYYCAIYNNYNWFDPWGQGTLVTVSS
VL: EIVLTQSPGTLSLSPGERATLSCRASQSVSSNYLAWYQQKPGQAPRLLIYDASSRATDIPDRFSGSGSGTDFTLTISRLEPEDFAVYYCQQYGSSPRTFGQGTKVEIK
notes: Human variable domains, mouse IgG2 Fc (H2M)

Inhibition of IFN-gamma Release IC50; Donor 1 [7]: 4.8e-11 Molar
Inhibition of IFN-gamma Release IC50; Donor 2 [7]: 5.7e-11 Molar
Inhibition of IFN-gamma Release IC50; Donor 3 [7]: 1.2e-10 Molar
Inhibition of IFN-gamma Release IC50; Donor 4 [7]: 1.1e-10 Molar
Inhibition of IFN-gamma Release IC50; Donor 5 [7]: 3.2e-11 Molar
IC50 [8]: 0.12 nM
IC50 [9]: 0.045 nM
B3: H2M1709N (antibody, mouse IgG2, V domains shown)
VH: QVQLVQSGAEVKKPGASVKVSCKVSGYTLTELSIHWVRQAPGKGLEWMGGFDPEDGETIYAQKFQGRVNMTEDTSTDTAYMELSSLRSDDTTVYFCASLLPYFDYWGQGTLVTVSS
VL: B2 VL with N32S, D51G, D58G, T75S, Y88F, P96M, R97Y, V105L
notes: as for B2
